Assay results from the DeepSol protein solubility set.

Assay: soluble on expression in E. coli; label from the status in PepcDB or PDB records

| Sequence | soluble on expression in E. coli |
| --- | --- |
| MDIKIAQESFPILVAENIYHCGYHSEKSYGAASYLIQHSQGNILVDSPRFTPPLVKRIEAMGGIKYMYLTHQDDVADHQKFAEHFQCQRILHTDEISAGTRNVEIQLTGLEPFPLQPDVLIIPVPGHTKGHTVLLYKNKFLFTGDHLAWSENRHQLTAFRDVCWYSWAEQIKSMRRLADYSFDWVLPGHGRRFHADVETMRQQMHKCIELMTDERQPLTFNSLEHHHHHH | not soluble |
| MAHHHHHHMAPVIPKSSNEGKDYSVASGSVDTPVLDQLVGYYVNIQSRKMYYKDFLRIEHQAVRWAFADIRKNSEALAHGLLQTGLRPGQRVLAIQPCNCETFVLQLACAKIGALLAVVPHHNISADKLRFYLNEFQPHHLIAREWIVVPEVKQGVLVERNMHFWDMIYNVIPELGLSYPGQRFQWVHSQEFFFLKKVVITDHNMNLLGVTPMRKMLVWGPFSYYEQRLRRLSALLHPDDPILALEDPHPALEDKLHITYSHRNCINAGFLFGNLMGLKAESRFGVMPNHHVDPVGAIVAPYAALTTGAVLVHIHSDMFTDDHAINGIEKLCVEEVVGMLGKKSDFDLLLRHAGNFDADQYEHLKWVVLFEDASEPTVGDEYLQKLAKELGLEDVFVFRGPLESAYMVMWRSLKRARWEMVPHVEAKVVGDRGTADARILAANTRGNLKLKGPHISAGYYNNAGLLTELVDERGFCSTSREAVMDERGQLTLHGTQLY | not soluble |
| MAHHHHHHMLNVLCDIKRYNGFDYYKCPRTILKKTCNFVKRENVADSIFIGNEIEFFIFDKVNFGLDDYDSYLKVYDREAFSCKNGGSGGSAVGSGSHDTTAGVACIACAGHVPPNDDSKKVKKKCGYFATDPYDTSNMIKLRICRILNSLNVHVQKYHHEVSTSQHEISLKYFDAVKNADNLIITKQVIKSTVHNFNRTATFMPKPLVSDNGSGLHCNISLWKDNKNIFFADDPSTFFLSKEAFYFMNGIIKHAKALQAFCNSTMNSYKRLVPGFETCQKLFYSFGSRNAVIRLSMINYSNPSEKRIEFRLPDYANSPHLVLAAIILAGYDGIKSKEQPLVPFESKDNNFFISSIFSNYVENTQNFKTLTHALEGYDTIHDVKKSPEFVNFFTCKEPESICFSLEESLDALEKDHAFLTVDGIFTEVRFVGKCGEAPNTVDTYLPTYPCVLPFVLPICLPHLFSPFFPTAGSH | not soluble |
| MGNNTIGARKSTTSKFWKCRSCIASRTTESRNNSIIQQRRNFIIRTKKEIPFPKRGASKDSCGSCHNQKNLIVCHLFLFKNHKKLFF | not soluble |
| MGSDKIHHHHHHMLDQIKAHLLDSINDIVSSANQFVLHPEKDFSRQSQLTMKTMIQAILTMGGNTLAKELLDLDLPVSQSAFVQRRYQIKHQAFKTLFRDITSKIPISDNLPILAVDGSDVILPRNRFDKTTSFQTGPHHTPYNLIHINALYTLEQEIYHDLRIQDNREVDERAAFIDMMKTSSFKQALVIMDRGYESYNVMAHCQERNWSYIIRIRDGNHSMKSGFNLPDTPCFDEAFDLNICRKQTNDMKELYRDFPNQYHFLPHNASFDFLLNSSRKSDPLQFYELHFRMVRLEIKPGFFETLVTNTDYSPEKLKELYAYRWGIETSFRDLKYSIGLTHFHAKKKEGILQEIYARFINFNVCKWLTSHVAIKTSKLKQTYKICFSDAVYACRKFLRNKLTSFQLETYIAKHLSIIRPNRTFQRKIKSKAPVSFTYRVT | not soluble |
| MNTINRNVYPVSGLSTQSVNPDSDGIQPPDVKSGHNSQLIDFSSPQQVNGLQSSLSLSGSRPQVPATRAASDASENPVELLLNKLVEAIRNILKDLLSLFKGDQQQDQAPPPAQTQREQAPSFSQLSQTPSSASPSSPSPSAAPAPAPTPTPTEKPFVVQNDHPADKPVTVQKNTAPTPPDPVQTQDKTSVTAPPKPVAATPAAHPRATTPVTEKPDTEEKVAKPAPRAAHGQGADMSGMIGFAKEANTTGGNNGEVVTVNTVADLKKYMEDDTARTVKLGANLSADSKVSINFGANKTLLGTDKGNSLHNIYLASGKTASNDIFQNLNFTHDSRYRENGDMQMFISSGQKYWIDHITATGTKDQNPKGLDKLLYVGGKADNVSLTNSRFQNNEYGVILGQPDDSADAKAEYKGYPRMTIANNVFSDLDVRAPGLMRHGQFDVFNNSINDFHLGFTATGDATILSQANYFAKGVDVSNKASNSGVLDDYGDAHFKDIGSNVSFTQKSPVTAWTPSYNRDIKTAEAARAYDLANAGAEAVR | not soluble |
| MTAISCSPRPRYASRMPVLSKTVEVTADAASIMAIVADIERYPEWNEGVKGAWVLARYDDGRPSQVRLDTAVQGIEGTYIHAVYYPGENQIQTVMQQGELFAKQEQLFSVVATGAASLLTVDMDVQVTMPVPEPMVKMLLNNVLEHLAENLKQRAEQLAAS | soluble |
| MKTPRLLQYLAYPQKITGPIIEAELRDVAIGELCEIRRGWHQKQVVARAQVVGLQRERTVLSLIGNAQGLSRDVVLYPTGRALSAWVGYSVLGAVLDPTGKIVERFTPEVAPISEERVIDVAPPSYASRVGVREPLITGVRAIDGLLTCGVGQRMGIFASAGCGKTMLMHMLIEQTEADVFVIGLIGERGREVTEFVDMLRASHKKEKCVLVFATSDFPSVDRCNAAQLATTVAEYFRDQGKRVVLFIDSMTRYARALRDVALASGERPARRGYPASVFDNLPRLLERPGATSEGSITAFYTVLLESEEEADPMADEIRSILDGHLYLSRKLAGQGHYPAIDVLKSVSRVFGQVTTPTHAEQASAVRKLMTRLEELQLFIDLGEYRPGENIDNDRAMQMRDSLKAWLCQPVAQYSSFDDTLSGMNAFADQN | not soluble |
| MAHHHHHHMYGGNNLRKFIPLVDIPLLGNKNNLLIFCGKVNFGSKKQKEKVDKETKKFRKFLKISNMKNNDEDEKYEGDINEGDMKKKMKGISGMTRIDYKIYDIKIQEINKNFENKIKKIFDTCLQIDFFNNISILKDKKNIKLCDVAQVVIKSSNLIYFYPYTINDIQKIIHNLKLKDNTWNPTVSNDGQYVILQIQPLSEDVKMKKKKEAKDLFEKIKNDIRNVRYKIRDDIIKNIEGDQWKIVERNKLDNYIKDKMKLIENVYEQSVKNY | not soluble |
| MGSDKIHHHHHHMLCNETTSTRDLILLGLKRHGERSVGEMAKELEITEMAVRRHIQALEKDGFVQTKLVRQAMGRPTTKYLLTEKGEERFPRNYLPLTLGFLKDIEELSGIDMIHVLFEKRKERLLAEYANQMKGCSFSERVEVLAQIQNDNGYMVEWKKIDDDTYQFIEYNCPISQVAKAYPVACACEKKLFKELLQTEAVVDNCCAAKDEAGYCSYTLKKPSVDG | not soluble |
| MGSDKIHHHHHHVRKFKIPNMGALLAFEAAARHESFTHAARELFLTESAVSRQINTLESNLGVRLFVRVKQRVMLTRAGKVYSAQVRRSLEQLDRDTLSIIAHGSGGGYLELAVLPTFASQWLIPRLAAFNAQYPDVRVNMGVRTGTFPFAETHFEAAIHYGKPTWPGTSADFLFSEEVVPVCAASLLKRPVQSAADLLDYPLVHSTTRPDGWAAWFANMGIDDNRTMQGVRYELHTMLISAAAAGLGIALVPRFFVDAQLEQLGLVIPLDAPVVADSAYYLVYPTELSHGKPLASFREWLLREAAAYSAVNPELGGPRDMD | not soluble |
| SQWIMHKTSTPEFCASCHSMSYPQQEWEGSSHFANAKGVRAQCSDCHIPKEGWHYVKAKFIALKDLWYEAQGKIENKEKYEAHRAEMAQRVWKDMKANDSETCRSCHSFDAMELSKQTKLAKQTHTEAQTNGQTCIDCHKGIVHFLPEVHGDQNTQKSSAVQGGTLSDGSAIFATEMVKATNDKGNEVRLMPYAELMQWKVDGDQIQGTLHGWQQVGAEAVVYQELGKRITLALMDEDARNHVQVLKIVHDAVTDSDWKEISVAVNVAKEKMTSDLTTLNQYGNQLNQTQCSGCHAAIGADHYTA | not soluble |
| MGSDKIHHHHHHMRALLCGYYGEGNGGDEALLAALLQLLPPTVEPLVLSGNPAATRTCYGVEACDRRSGAAVWQALRRSDLFIFGGGSLIQDVTSWTSPLYYCGLMGLAQQLGLKTIAWAQGIGPLQRKRTRWLARRTFQHCDRITVRDRGSAALLKEWGISVAIAPDPVWALEPLPLDQPLSNQEAIAVCLRPHPELTPERSDRLKAALTTLQSQTQAPILLIPFHHQQDRPLAAQWASEIPQAEVLDWQHPRQLLSYFQSVRLTIAMRFHGLVMAAAAGNRCFGLSYDPKVRRFLDALEQPGWDLPEIPDSAEAIAAAWLESWQAEPIHAAAIADLRQQVDVHRQALVF | not soluble |
| MGFDASVLKSVLEQFVDEIGEESVDLIEDRPRFAHAVVVVTDDATGELCQASCIRQLDDVILHETSVANVTSEWMDEEIQRALRELTESRELLDTPRNSVFVEEKHEKQKTVTTTTTSTETSRNTSSRVEFPSMARRTRSTSAARRFN | not soluble |
